# Earlier results in publication PMC11970764.
# pKd: −log10 of the molar value.
# Molecular target: HIF-1α PAS-B (Homo sapiens) (UniProt Q16665)
# Test: ITC
# UniProt Q16665, sequence (Q16665 238-349): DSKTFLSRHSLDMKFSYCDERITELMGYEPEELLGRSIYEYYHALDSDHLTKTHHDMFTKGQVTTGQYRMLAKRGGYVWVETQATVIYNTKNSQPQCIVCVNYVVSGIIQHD
substance,measurement,value
Cyclo-C(TAT)LLFVY,pKd,6.91
